The results in this text go back to patent US20250277059A1, “ANTIBODY USED TO TREAT CORONAVIRUS INFECTION” (priority 2022, published 2025).

Assay [1] has as its target Cynomolgus monkey TMPRSS2 expressed on cells (cynomolgus monkey). The assay is described as follows: flow cytometry, Daudi transfectant. For orientation: In flow cytometry, cells or beads pass a laser one at a time.
Assay [2] has as its target Human TMPRSS2 expressed on cells (human) (UniProt O15393). The experiment in a line: flow cytometry, Daudi transfectant.
Assay [3] has as its target T1, Mouse TMPRSS2 expressed on cells (mouse, UniProt Q9JIQ8 1-490). The assay is described as follows: flow cytometry, Daudi transfectant.
Assay [4] deals with Human TMPRSS2 expressed on cells (human) (UniProt O15393). The assay is described as follows: flow cytometry, COS7 transfectant; Q1 23.3.
Assay [5] addresses T2, Human TMPRSS2 expressed on cells (human, UniProt O15393 1-492). The assay is described as follows: cell-based or functional assay.
For assay [6], the target named is T2, Human TMPRSS2 expressed on cells. The experiment in a line: cell-based or functional assay. The source holds these as a separate data set.
Assay [7] concerns the target T3, Human TMPRSS2 recombinant protein, extracellular region (N-terminal His tag, C-terminal Strep-tag II) (human, UniProt O15393 106-492).
T3 construct: also called Human TMPRSS2 recombinant proteins; extracellular region of human TMPRSS2
The experiment in a line: SPR (BIAcore); rounded repeat of Table 1.

The target in assay [8] is T1, Mouse TMPRSS2 expressed on cells. The experiment in a line: flow cytometry, Daudi transfectant. This is another data set of the same source.
The target in assay [9] is T3, Human TMPRSS2 recombinant protein, …. The experiment in a line: SPR (BIAcore), captured mAb, soluble human TMPRSS2 extracellular region. (SPR reads the build-up and loss of mass on a sensor chip optically.)
The target in assay [10] is T2, Human TMPRSS2 expressed on cells. The assay is described as follows: flow cytometry, Daudi transfectant.
Assay [11] has as its target T1, Mouse TMPRSS2 expressed on cells. The experiment in a line: flow cytometry, Daudi transfectant. The source holds these as a separate data set.
The target in assay [12] is T4, TMPRSS-11D (human, UniProt O60235).
T4 sequence (single chain, looked up): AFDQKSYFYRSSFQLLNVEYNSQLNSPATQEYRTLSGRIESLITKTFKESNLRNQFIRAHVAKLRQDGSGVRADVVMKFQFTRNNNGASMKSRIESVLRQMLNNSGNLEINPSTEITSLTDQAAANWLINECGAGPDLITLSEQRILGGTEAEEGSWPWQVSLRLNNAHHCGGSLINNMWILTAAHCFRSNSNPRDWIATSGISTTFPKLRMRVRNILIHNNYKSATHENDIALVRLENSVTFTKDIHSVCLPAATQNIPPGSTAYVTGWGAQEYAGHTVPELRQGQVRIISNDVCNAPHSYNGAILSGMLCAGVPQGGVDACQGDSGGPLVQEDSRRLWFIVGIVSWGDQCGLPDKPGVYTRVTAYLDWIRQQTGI
The assay is described as follows: ELISA, Strep-tagged protein on streptavidin plate. A general note: An ELISA detects its analyte on a solid surface through an enzyme-linked reagent.

Assay [13] addresses T5, TMPRSS-11E (human, UniProt Q9UL52).
T5 sequence (single chain, looked up): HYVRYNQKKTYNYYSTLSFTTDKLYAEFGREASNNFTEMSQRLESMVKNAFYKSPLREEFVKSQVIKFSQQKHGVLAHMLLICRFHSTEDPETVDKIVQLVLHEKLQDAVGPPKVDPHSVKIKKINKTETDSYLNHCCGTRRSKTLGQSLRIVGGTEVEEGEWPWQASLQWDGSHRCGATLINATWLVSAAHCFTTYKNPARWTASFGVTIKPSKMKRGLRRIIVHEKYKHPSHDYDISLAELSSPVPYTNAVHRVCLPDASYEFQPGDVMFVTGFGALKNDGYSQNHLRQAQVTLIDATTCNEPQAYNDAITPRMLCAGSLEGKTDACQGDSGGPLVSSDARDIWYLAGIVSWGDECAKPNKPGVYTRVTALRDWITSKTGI
The experiment in a line: ELISA, Strep-tagged protein on streptavidin plate.

For assay [14], the target named is TMPRSS-11F (human, UniProt Q6ZWK6). The experiment in a line: ELISA, Strep-tagged protein on streptavidin plate.
For assay [15], the target named is T6, TMPRSS-13 (human, UniProt Q9BYE2).
T6 sequence (single chain, looked up): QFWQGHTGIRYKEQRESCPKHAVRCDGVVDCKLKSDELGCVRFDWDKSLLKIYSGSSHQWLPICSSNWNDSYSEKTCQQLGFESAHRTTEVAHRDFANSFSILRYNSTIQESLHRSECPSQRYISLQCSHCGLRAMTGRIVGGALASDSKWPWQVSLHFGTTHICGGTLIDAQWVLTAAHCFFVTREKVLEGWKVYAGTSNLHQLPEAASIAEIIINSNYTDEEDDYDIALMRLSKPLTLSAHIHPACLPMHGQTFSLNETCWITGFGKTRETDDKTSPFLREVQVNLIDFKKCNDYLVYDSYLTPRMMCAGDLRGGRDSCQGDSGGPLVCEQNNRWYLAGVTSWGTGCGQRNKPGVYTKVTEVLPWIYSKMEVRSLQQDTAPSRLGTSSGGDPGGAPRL
The experiment in a line: ELISA, Strep-tagged protein on streptavidin plate.

In assay [16] the target is T7, human TMPRSS2 (Homo sapiens, UniProt O15393). The assay is described as follows: Competitive inhibition between anti-TMPRSS2 mAbs (flow cytometry). It is filed as binding. The following applies: FIG. 3B.
Target sequence in this assay (O15393 whole entry): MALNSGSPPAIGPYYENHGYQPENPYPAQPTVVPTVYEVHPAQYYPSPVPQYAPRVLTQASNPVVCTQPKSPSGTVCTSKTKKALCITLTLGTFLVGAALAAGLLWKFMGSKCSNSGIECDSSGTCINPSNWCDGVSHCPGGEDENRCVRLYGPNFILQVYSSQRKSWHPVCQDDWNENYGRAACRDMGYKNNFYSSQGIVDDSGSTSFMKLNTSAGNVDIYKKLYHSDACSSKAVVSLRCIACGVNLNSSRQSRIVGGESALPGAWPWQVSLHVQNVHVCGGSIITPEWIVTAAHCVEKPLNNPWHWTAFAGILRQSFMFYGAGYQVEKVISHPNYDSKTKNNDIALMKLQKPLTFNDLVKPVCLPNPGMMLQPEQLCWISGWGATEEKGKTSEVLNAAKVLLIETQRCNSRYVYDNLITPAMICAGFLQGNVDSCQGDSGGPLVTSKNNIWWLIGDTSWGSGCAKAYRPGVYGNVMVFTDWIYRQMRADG
For assay [17], the system named is TMPRSS2 of non-human animal species. It is filed as binding. The following applies: Table 3; species whose TMPRSS2 is bound.
Assay [18] concerns the target T8, mouse TMPRSS2 (Mus musculus, UniProt Q9JIQ8).
T8 construct: expressed in transfected cells; host or cells: Daudi
The assay is described as follows: FACS cross-reactivity to mouse TMPRSS2. The following applies: FIGS. 10C and 10D. In kind it is binding.

Assay [19] concerns the target T9, amino acid sequence set forth in SEQ ID NO: 85 ([…]) (Homo sapiens, UniProt O15393).
T9 construct: purchased JPT Peptide Technologies GmbH; host or cells: synthetic peptides on glass slide
The assay is described as follows: Epitope mapping by peptide array. It is filed as binding. The following applies: 20-meric peptide array, FIGS. 5A to 5B.

For assay [20], the system named is human TMPRSS family proteins. The assay is described as follows: Binding properties to TMPRSS family. The following applies: FIG. 9. Here is the method:
The reactivity of anti-TMPRSS2 mAbs to extracellular regions of human TMPRSS family proteins was analyzed by ELISA method. To a streptavidin-coated 96-well plate (Thermo Scientific, 436014), 100 μl each of 78 nM Strep-tagged recombinant proteins in PBS was captured at room temperature for 2 hours and washed 5 times with PBST (0.1% Tween 20/PBS). Anti-TMPRSS2 mAbs (10 μg/mL), mouse IgG (Equitech-Bio, SLM66) or Ni-NTA-HRP (KPL, 24-01-01) as controls, diluted to 0.2% BSA in PBST was added thereto to incubate for 2 hours. After washing with PBST, the bound IgG was detected with 100 μl horseradish peroxidase Goat anti-mouse IgG antibody (BioLegend, Inc.) diluted to 1:15,000 in PBST at room temperature for 1 hour and washed with PBST. 100 μl TMB substrate solution (SeraCare Life Sciences, Inc. 5120-0077) was added to the well and allowed to color at room temperature for a few minutes. The reaction was stopped with 100 μl 2M H2SO4. The optical density (OD) was read at 450 nm while referring to OD with a microplate reader (ARVO ×3, PerkinElmer, Inc.).

Assay [21] addresses T7, human TMPRSS2. The experiment in a line: BIACore binding assay of anti-TMPRSS2 antibodies. The following applies: Table 1, mouse mAbs, 25° C.
Target sequence in this assay (O15393 106-492 limits assumed): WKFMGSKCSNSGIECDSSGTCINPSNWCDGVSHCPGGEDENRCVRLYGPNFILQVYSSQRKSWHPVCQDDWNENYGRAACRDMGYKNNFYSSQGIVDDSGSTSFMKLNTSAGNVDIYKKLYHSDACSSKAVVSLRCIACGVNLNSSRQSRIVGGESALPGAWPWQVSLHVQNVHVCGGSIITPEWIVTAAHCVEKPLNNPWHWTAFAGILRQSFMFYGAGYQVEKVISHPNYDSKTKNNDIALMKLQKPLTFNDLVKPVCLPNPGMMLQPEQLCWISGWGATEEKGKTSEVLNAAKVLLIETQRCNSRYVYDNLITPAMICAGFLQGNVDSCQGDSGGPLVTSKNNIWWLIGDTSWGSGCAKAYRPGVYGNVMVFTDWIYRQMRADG

Like-named read-outs stand apart in the source and are kept apart here.

T2 sequence (O15393 whole entry): as the sequence (O15393 whole entry) above
T3 sequence (O15393 other isoform, or with tags, fused parts or gaps limits assumed): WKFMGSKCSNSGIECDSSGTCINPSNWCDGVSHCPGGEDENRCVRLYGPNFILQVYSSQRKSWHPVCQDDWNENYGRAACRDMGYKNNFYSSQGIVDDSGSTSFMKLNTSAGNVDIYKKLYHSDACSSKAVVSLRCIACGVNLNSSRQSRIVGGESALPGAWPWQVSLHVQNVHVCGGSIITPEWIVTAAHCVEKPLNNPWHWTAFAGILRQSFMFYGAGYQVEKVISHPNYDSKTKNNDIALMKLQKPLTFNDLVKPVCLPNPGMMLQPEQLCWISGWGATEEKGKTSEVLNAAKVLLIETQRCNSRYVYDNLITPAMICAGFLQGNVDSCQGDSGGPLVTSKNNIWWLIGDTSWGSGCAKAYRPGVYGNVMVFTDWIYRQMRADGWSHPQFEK
T1 sequence (Q9JIQ8 whole entry): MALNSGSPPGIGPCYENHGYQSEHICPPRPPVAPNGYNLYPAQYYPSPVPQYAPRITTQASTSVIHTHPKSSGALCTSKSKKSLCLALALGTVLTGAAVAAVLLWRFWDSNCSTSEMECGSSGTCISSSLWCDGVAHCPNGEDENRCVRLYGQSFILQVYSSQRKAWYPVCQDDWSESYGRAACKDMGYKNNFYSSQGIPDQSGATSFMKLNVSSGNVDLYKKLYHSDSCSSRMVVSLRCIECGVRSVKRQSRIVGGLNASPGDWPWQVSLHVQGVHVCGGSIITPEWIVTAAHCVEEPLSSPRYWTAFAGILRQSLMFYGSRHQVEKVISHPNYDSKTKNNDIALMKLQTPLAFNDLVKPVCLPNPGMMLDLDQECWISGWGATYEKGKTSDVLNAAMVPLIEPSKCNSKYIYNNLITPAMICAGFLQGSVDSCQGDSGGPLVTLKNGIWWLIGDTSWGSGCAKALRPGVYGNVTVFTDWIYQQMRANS
Sequence of Human TMPRSS2 expressed on cells (human) (O15393 whole entry): as the sequence (O15393 whole entry) above
T8 sequence (Q9JIQ8 whole entry): as the sequence (Q9JIQ8 whole entry) above
Sequence of TMPRSS-11F (Q6ZWK6 54-438 limits assumed): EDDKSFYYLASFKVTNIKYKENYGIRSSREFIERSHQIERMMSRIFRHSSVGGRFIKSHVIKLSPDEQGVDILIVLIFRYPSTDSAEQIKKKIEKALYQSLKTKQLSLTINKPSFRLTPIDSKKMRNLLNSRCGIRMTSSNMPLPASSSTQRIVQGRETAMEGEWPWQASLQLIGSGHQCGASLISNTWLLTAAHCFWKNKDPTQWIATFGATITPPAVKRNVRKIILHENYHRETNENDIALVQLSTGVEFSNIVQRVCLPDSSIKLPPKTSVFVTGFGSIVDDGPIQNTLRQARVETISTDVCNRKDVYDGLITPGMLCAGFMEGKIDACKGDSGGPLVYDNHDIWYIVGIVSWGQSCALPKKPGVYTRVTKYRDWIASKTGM

In the case of mIgG (antibody), the Q2 (percent of cells GFP+ and stained) in [1] was 1.51; in [2], 0.12; in assay [3], 0.011; in assay [4] it was 0.015.

B1: 2114_16 antibody (antibody, V domains shown)
VH: EVQLQQSGPELVKPGASVKISCKASGYTFTDYYMNWVKRRHGKSLEWIGNINPNNGGTSYNQKFKGKATLTVDKSSSTAYMELRSLTSEDSVVYYCAREGDLFPFAYWGQGTLVTVSA
VL: QAVVTQESALTTSPGETVTLTCRSSIGTVTTSNFANWVQEKPDHLFTGLIGASNNRAPGVPARFSGSLIGDKAALTITGAQTEDEAIYFCALWFSNHWVFGGGTKLTVL
notes: also called 2114 antibody
For orientation: Kd means the concentration at which binding is half-saturated. As a reminder, the koff is a measure of how fast the partners let go of each other. For orientation: kon means the rate constant with which the complex forms. B1: the “Activity: Calu-3 Inhibiton” value in [5] was 47.6. Further, in assay [6], the “IC90, First run; live SARS-CoV-2 infection of Calu-3 cells” value is 1.5 µg/mL and the “IC90, Second run; live SARS-CoV-2 infection of Calu-3 cells” value was determined as 3.4 µg/mL. Moreover, the Kd in assay [7] is 1 nM. In addition, the binding result in [8] is on record as “no binding (tested: 1 µg/mL)”. In assay [9], the Kd was determined as 1.04 nM, the koff came out at 0.000591 s⁻¹ and the kon stood at 570000 M⁻¹ s⁻¹.

B2: 2020_12 antibody (antibody, V domains shown)
VH: QVQLQQPGAELAKPGASVKLSCKASGYTFTSYWMHWVKQRPGQGLEWIGLIPPNSGSSNYNEKFKSKATLTVDKSSRTAYMQLSSLTSEDSAVYYCARWDYGSSYGYFDVWGTGTTVTVSS
VL: DIVLTQSPASLAVSLGQRATISCRASESVSTSGYSYMHWYQQKPGQPPKLLIYLASNLESGVPVRFSGSGSGTDFTLNIHPVEEEDAATYYCQHSRELPPTFGAGTKLELK
B2: the “Activity: Calu-3 Inhibiton” value in assay [5] worked out at 66. The “IC90, First run; live SARS-CoV-2 infection of Calu-3 cells” value in assay [6] was found to be 0.23 µg/mL. For the same molecule, the “IC90, Second run; live SARS-CoV-2 infection of Calu-3 cells” value in [6] worked out at 0.13 µg/mL. Also, the Q2 (percent of cells GFP+ and stained) worked out at 0.88 in assay [1], 99.9 in assay [10] and 48.5 in assay [11]. Further, the Kd in assay [7] amounted to 2.7 nM; in [9], 2.69 nM. Also, the binding result in assay [12], in assay [13], in [14] and in [15] was “no binding (tested: 10 µg/mL)” throughout. For the same molecule, in assay [9], the koff was 0.00176 s⁻¹. Also, the kon in assay [9] worked out at 654000 M⁻¹ s⁻¹.

B3: 2020_12: mouse anti-human TMPRSS2 monoclonal antibody, IgG2c κ; VH SEQ ID NO: 25, VL SEQ ID NO: 26 (antibody, V domains shown)
VH: QVQLQQPGAELAKPGASVKLSCKASGYTFTSYWMHWVKQRPGQGLEWIGLIPPNSGSSNYNEKFKSKATLTVDKSSRTAYMQLSSLTSEDSAVYYCARWDYGSSYGYFDVWGTGTTVTVSS
VL: DIVLTQSPASLAVSLGQRATISCRASESVSTSGYSYMHWYQQKPGQPPKLLIYLASNLESGVPVRFSGSGSGTDFTLNIHPVEEEDAATYYCQHSRELPPTFGAGTKLELK
modifications: mouse IgG2c kappa constant regions; 2020_12 VH; 2020_12 VL
As for B3, the “competition with 2228_15 antibody for binding to human TMPRSS2” value in assay [16] is given as “competed”. Moreover, in [17], the Cross-reactivity entry is “Mouse”. The “cross-reactivity to mouse TMPRSS2” value in assay [18] was “exhibited the cross-reactivity”. The “binding to peptide of SEQ ID NO: 85” value in assay [19] was “particularly bound”. Also, the “binding properties to the TMPRSS family” value in assay [20] is on record as “bound specifically only to TMPRSS2”. In assay [21], the “ka” value turned out to be 654000 M⁻¹ s⁻¹ and the “kd” value was determined as 0.001759 s⁻¹.

B4: 1864_10: mouse anti-human TMPRSS2 monoclonal antibody, IgG2b κ; VH SEQ ID NO: 17, VL SEQ ID NO: 18 (antibody, V domains shown)
VH: QVQLQQSGPALVKPGASLKISCEASGYTFTYYSINWVKQRPGQGLEWIGWIFPGSGSTYYNEKFKGKATLTIDKSSSTAYMLLSSLTSEDSAVYFCARSDYGSAYGYFDVWGTGTTVTVSS
VL: DIVLTQSPASLAVSLGQRATISCRASKSVSTSGYSYMHWYQQKPGQPPKLLIYLASNLESGVPARFSGSGSGTDFTLNIHPVEEEDAATYYCQHSRDLPLTFGAGTKLELK
modifications: mouse IgG2b kappa constant regions; 1864_10 VH; 1864_10 VL
Turning to B4, in assay [16], the “competition with 2228_15 antibody for binding to human TMPRSS2” value is given as “competed”. Besides, the Cross-reactivity entry in assay [17] is given as “Mouse”. In assay [18], the “cross-reactivity to mouse TMPRSS2” value is given as “exhibited the cross-reactivity”. In assay [19], the “binding to peptide of SEQ ID NO: 85” value is recorded as “particularly bound”. The “binding properties to the TMPRSS family” value in assay [20] is on record as “bound specifically only to TMPRSS2”. In [21], the “ka” value worked out at 563000 M⁻¹ s⁻¹ and the “kd” value came out at 0.002894 s⁻¹.

B5: 1831_15 antibody (antibody, V domains shown)
VH: QVQLQQPGAELVKPGASVKLSCKASGYSFTTYWMHWVRQRPGQGLEWIGIIHPNSGTTNYNEKFKSKASLTVDKSSSTAYMQLSSLTSEDSAVYYCARLLWDYFDYWGQGTTLTVSS
VL: DIVMSQSPSSLAVSAGEKVTMSCKSSQSLLNSRTRKNFLAWYQQKPGQSPKLLIYWASTRESGVPDRFTGSGSGTDFTLTISSVQAEDLAVYYCKQSYNLYTFGGGTKLEIK
B5: the “Activity: Calu-3 Inhibiton” value in [5] worked out at 44.8. Also, the Kd in [7] was determined as 0.42 nM. Further, the binding result in assay [8] is listed as “no binding (tested: 1 µg/mL)”. Besides, in assay [9], the Kd was determined as 0.418 nM, the dissociation rate constant (koff) is 0.000236 s⁻¹ and the kon worked out at 563000 M⁻¹ s⁻¹.
